B1: Nanos homolog 2, residues 63 to 115; numbered along this chain, P60321 (parent)
chain: CNFCKHNGESRHVYSSHQLKTPDGVVVCPILRHYVCPVCGATGDQAHTLKYCP

Variants of: B1
Test: abundance fitness (aPCA) (normalised: wild type 0, dead -1); higher = more abundant; growth selection in yeast, the domain comes from the species named
Details: Homo sapiens

Abundance fitness, by site and new letter:
V13: Q -0.068, D -0.013, S -0.008, W -0.04, M 0.056, N 0.064, H -0.087, P -0.477, K 0.113, E -0.058, L -0.05, A -0.084, C 0, I -0.195, R -0.06, G -0.007, T 0.157, Y -0.125
T21: G -0.004
S16: C 0.077, F -0.594, M -0.047, T -0.335, Y -0.489, I -0.406, W -0.557, E -0.163, L -0.456, H -0.287, P -0.459, A -0.117, N 0.023, G -0.035, D -0.08, Q -0.042, K -0.262, V -0.562, R -0.135
G8: E -0.119, P -0.343, S -0.08, N -0.161, T -0.359, R -0.063, F -0.202, L -0.23, H -0.092, Q -0.084, C -0.313, K -0.174, A -0.196, M -0.137, D -0.223, W -0.342, V -0.306
L19: S -0.186, V -0.113, D -0.172, R -0.372, Q -0.329, G -0.292, P -0.508, C -0.093, M -0.051, E -0.013, W -0.089, T -0.041, I -0.149, N -0.277
P22: L -0.067, G -0.041, C 0.002, T -0.084, M -0.129, W -0.321, V -0.053, D -0.112, K 0.306, I -0.158, N -0.12, A -0.048, Y -0.121, S 0.037, R -0.079, E -0.184, H -0.107, F -0.383
D23: V -0.22, Q -0.061, I -0.418, M -0.234, T -0.211, G -0.132, C -0.189, Y -0.119, W -0.306, E 0.076, R -0.128, N -0.044, L -0.252, H -0.307, F -0.371, P -0.378, S -0.141
N7: V -0.364, R -0.036, F -0.241, K 0.021, W -0.47, S -0.054, D -0.513, L -0.311, I -0.432, G -0.144, M 0.173, A -0.213, Q -0.263, H -0.036, P -0.764, C -0.316, T -0.122
R11: V -0.007, Q -0.077, G -0.084, N -0.131, C -0.497, D 0.167, S -0.047, W -0.408, P 0.172, F 0.07, T 0.08, L -0.049, A -0.034, I 0.063, K -0.317, H -0.039, M -0.156
Y14: E -0.089, G -0.109, D -0.213, V -0.011, T 0.011, L -0.125, Q 0.002, M -0.274, K -0.133, A -0.165, W 0.208, C 0.036, I -0.18, H -0.226, R -0.153
G24: I -0.983, F -1.02, D -0.108, M -0.461, C -0.496, H -0.381, E -0.115, N 0.113, K -0.353, L -0.527
C4: L -1, F -0.423, Y -0.874, Q -0.959, R -0.933, P -0.693, S -0.635, N -0.694, M -1, A -1.06, T -0.879, V -0.952, H -0.688, E -0.867, K -0.63, G -0.802
F3: S -0.623, T -0.988, R -0.848, V -1.01, W -0.709, Y -0.117, Q -0.933
S15: Q 0.034, L -0.002, K -0.099, F -0.135, V -0.157, Y 0.068, I -0.258, P -0.326, W -0.333, C -0.158, G 0.051, T -0.595, N -0.034, H -0.095
K5: Y -0.145, G -0.699, F -0.305, A -0.245, E -0.24, Q -0.281, H -0.3, I -0.054, T -0.456, D -0.401, N -0.541, S -0.313, M -0.165, C -0.249, W -0.4, L -0.144, P -0.691
Q18: Y -0.149, R -0.114, I -0.259, G -0.089, D 0.101, S -0.104, V 0.065, A 0.056, N 0.097, T -0.145, F -0.079, L -0.033, M 0.091, P -0.183, H 0.081, K 0.133
K20: G -0.523, M -0.368, C -0.071, P -0.561, T -0.118, E -0.47, A -0.111, L -0.289, S -0.168, W -0.569, Y -0.455, V -0.204, H -0.101, N -0.388, Q -0.47, F -0.336, D -0.118
H6: M -0.047, E -0.027, G -0.011, A -0.011, R 0.078, K 0.158, T -0.091, D -0.093, N -0.003, L -0.096, P -0.277, W -0.451, C -0.099, F -0.147, Q 0.011, I -0.062, S 0.039
H17: L -0.756, T -0.442, N -0.711, W -1.14, C -0.737, F -0.86, A -0.626, I -0.719, V -0.769, R -0.644, E -0.512, K -0.6, P -0.828, S -0.674, G -0.618, Q -0.452
S10: N -0.198, C -0.321, D -0.158, H 0.022, Y -0.328, E 0.025, L -0.194, A -0.172, G 0.012, F -0.251, Q 0.066, K 0.079, I -0.149, V -0.296, R 0.003, P 0.02, W -0.442, T -0.248
E9: M -0.116, W -0.495, R -0.125, S -0.26, D -0.298, T -0.154, P -0.25, C 0.065, L -0.277, F -0.259, G -0.274, Q -0.116, K -0.007, V -0.189, N -0.153, A -0.103
H12: I -0.043, T 0.035, P -0.069, V -0.091, W -0.148, K 0.096, C -0.06, Q -0.013, D 0.188, G 0.056, M -0.012, S 0.126, Y -0.101, E 0.226, F -0.031, L -0.036, R -0.049

From the Human Domainome abundance scans (Beltran et al. 2025)
